Experimental data reported in paper PMC9504171, “Revealing a New Family of D-2-Hydroxyglutarate Dehydrogenases in Escherichia coli and Pantoea ananatis Encoded by ydiJ” (Microorganisms, 2022).

Tests used:
purified protein [1] = substrate: O=C(O)CC[C@@H](O)C(=O)O; assay: purified protein; assay type: biochemical, Pantoea ananatis; details: 200 μM phenazine ethosulfate, 100 μM DCIP, 50 mM Tris-HCl pH 7.5, 25 °C
purified protein [2] = substrate: O=C(O)CC[C@@H](O)C(=O)O; assay: purified protein; assay type: biochemical, Escherichia coli; details: 200 μM phenazine ethosulfate, 100 μM DCIP, 50 mM Tris-HCl pH 8.0, 25 °C

B1: D2HGDHPa (YdiJ, P. ananatis) (Pantoea ananatis AJ13355) (protein)
chain: MIPQISQAPGLIQRVLTFLETLKAQGFTGDTATSYADRLSLSTDNSIYQLLPDAVLFPRSTADVALIARLAGEAAFSSLVFTPRGGGTGTNGQSLNQGIIVDMSRHMNRILEINTEQRWVRVEAGVVKDQLNAYLKPFGFFFSPELSTSNRATLGGMINTDASGQGSLVYGKTSDHVLGLRAVLLGGDILDTRPVPTALAENLAQTPTPEGRIYQQVLTRCREHRELILEKFPKLNRFLTGYDLRHVFSDDMQTFDLTRLLCGAEGTLAFISEARLDITPLPKVRRVVNIKYDAFDSALRNAPLMVEAQALSVETVDSKVLNLAREDIVWHSVRELITAIPDKEMLGLNIVEFAGDDAGQIDRQITQLCARLDTLMTQQQGGVIGYQLCDDLDGIERIYNMRKKAVGLLGNAKGRAKPIPFVEDTAVPPEHLADYIVEFRALLDSHGLSYGMFGHVDAGVLHVRPALDMCDPHQEMMMKQISDEVVALTARYGGLLWGEHGKGFRAQYSPAFFGETLFNELRRIKAAFDPHNRLNPGKICTPFDSEAAMMQVDATKRGSYDRQIPLQVRETWRGALECNGNGLCFNFDARSPMCPSMKITRNRIHSPKGRATLTREWLRLLAEQGADPVMLEKKLPESSLSLRALISRMRNTWYANKGEYDFSHEVKEAMSGCLACKACSTQCPIKIDVPAFRSRFLQLYHTRYLRPLSDHLVAGVESYAPLMAKAPGVFNFFLKQPWATSFSKTHIGMVDLPLLSSPTLKQQLSGHPAMNMTLEQLEALSETQRAQKVLVVQDPFTSFYEAKLVHDFIRLIEKLGYQPVLLPFSPNGKAQHVKGFLQRFARTASKTADFLNRVAKLGMPMVGIDPATVLCYRDEYHQMLGEARGDFNVLLVHEWLHQALQEREVQVTSGEAWYLFAHCTEVTALPGTPGQWQAIFSRFGAKLENINVGCCGMAGTYGHESQNLENSLGIYALSWHPQLQKLPRQRCLATGFSCRSQVKRVEGNGMRHPLQALLELI
notes: 1018 residues; calculated 113,453 Da; homotetramer ~440 kDa
Km (purified protein [1]): 208 ± 10 µM | kcat (purified protein [1]): 9.7 s⁻¹ | kcat/Km (purified protein [1]): 50000 M⁻¹ s⁻¹

B2: D2HGDHEc (YdiJ, E. coli) (Escherichia coli K-12) (protein)
chain: MIPQISQAPGVVQLVLNFLQELEQQGFTGDTATSYADRLTMSTDNSIYQLLPDAVVFPRSTADVALIARLAAQERYSSLIFTPRGGGTGTNGQALNQGIIVDMSRHMNRIIEINPEEGWVRVEAGVIKDQLNQYLKPFGYFFAPELSTSNRATLGGMINTDASGQGSLVYGKTSDHVLGVRAVLLGGDILDTQPLPVELAETLGKSNTTIGRIYNTVYQRCRQQRQLIIDNFPKLNRFLTGYDLRHVFNDEMTEFDLTRILTGSEGTLAFITEARLDITRLPKVRRLVNVKYDSFDSALRNAPFMVEARALSVETVDSKVLNLAREDIVWHSVSELITDVPDQEMLGLNIVEFAGDDEALIDERVNALCARLDELIASHQAGVIGWQVCRELAGVERIYAMRKKAVGLLGNAKGAAKPIPFAEDTCVPPEHLADYIAEFRALLDSHGLSYGMFGHVDAGVLHVRPALDMCDPQQEILMKQISDDVVALTAKYGGLLWGEHGKGFRAEYSPAFFGEELFAELRKVKAAFDPHNRLNPGKICPPEGLDAPMMKVDAVKRGTFDRQIPIAVRQQWRGAMECNGNGLCFNFDARSPMCPSMKITQNRIHSPKGRATLVREWLRLLADRGVDPLKLEQELPESGVSLRTLIARTRNSWHANKGEYDFSHEVKEAMSGCLACKACSTQCPIKIDVPEFRSRFLQLYHTRYLRPLRDHLVATVESYAPLMARAPKTFNFFINQPLVRKLSEKHIGMVDLPLLSVPSLQQQMVGHRSANMTLEQLESLNAEQKARTVLVVQDPFTSYYDAQVVADFVRLVEKLGFQPVLLPFSPNGKAQHIKGFLNRFAKTAKKTADFLNRMAKLGMPMVGVDPALVLCYRDEYKLALGEERGEFNVLLANEWLASALESQPVATVSGESWYFFGHCTEVTALPGAPAQWAAIFARFGAKLENVSVGCCGMAGTYGHEAKNHENSLGIYELSWHQAMQRLPRNRCLATGYSCRSQVKRVEGTGVRHPVQALLEIIK
notes: 1018 residues; calculated 113,248 Da; homotetramer ~440 kDa
Km (purified protein [2]): 83 ± 5 µM | kcat (purified protein [2]): 13.9 s⁻¹ | kcat/Km (purified protein [2]): 170000 M⁻¹ s⁻¹
